We go through 18 molecules from patent US20230235013A1 (MABSOLVE, published 2023).

B1: anti-CD20 human IgG1 L234R/L235H/G236R (antibody)
heavy: QVQLQQPGAELVKPGASVKMSCKASGYTFTSYNMHWVKQTPGRGLEWIGAIYPGNGDTSYNQKFKGKATLTADKSSSTAYMQLSSLTSEDSAVYYCARSTYYGGDWYFNVWGAGTTVTVSSASTKGPSVFPLAPSSKSTSGGTAALGCLVKDYFPEPVTVSWNSGALTSGVHTFPAVLQSSGLYSLSSVVTVPSSSLGTQTYICNVNHKPSNTKVDKKVEPKSCDKTHTCPPCPAPERHRGPSVFLFPPKPKDTLMISRTPEVTCVVVDVSHEDPEVKFNWYVDGVEVHNAKTKPREEQYNSTYRVVSVLTVLHQDWLNGKEYKCKVSNKALPAPIEKTISKAKGQPREPQVYTLPPSRDELTKNQVSLTCLVKGFYPSDIAVEWESNGQPENNYKTTPPVLDSDGSFFLYSKLTVDKSRWQQGNVFSCSVMHEALHNHYTQKSLSLSPGK
light: QIVLSQSPAILSASPGEKVTMTCRASSSVSYIHWFQQKPGSSPKPWIYATSNLASGVPVRFSGSGSGTSYSLTISRVEAEDAATYYCQQWTSNPPTFGGGTKLEIKRTVAAPSVFIFPPSDEQLKSGTASVVCLLNNFYPREAKVQWKVDNALQSGNSQESVTEQDSKDSTYSLSSTLTLSKADYEKHKVYACEVTHQGLSSPVTKSFNRGEC
notes: also called 2-38
B2: anti-CD20 human IgG1 L234R/L235I/G236R (antibody)
heavy: B1 heavy with H239I
light: B1 light
notes: also called 2-39
B3: anti-CD20 human IgG1 L234T/L235S/G236R (antibody)
heavy: B1 heavy with R238T, H239S
light: B1 light
notes: also called 2-62
B4: anti-CD20 human IgG1 L234T/L235R/G236R (antibody)
heavy: B1 heavy with R238T, H239R
light: B1 light
notes: also called 2-61
B5: anti-CD20 human IgG1 L234T/L235Q/G236R (antibody)
heavy: B1 heavy with R238T, H239Q
light: B1 light
notes: also called 2-60
B6: anti-CD20 human IgG1 L234D/L235K/G236R (antibody)
heavy: B1 heavy with R238D, H239K
light: B1 light
notes: also called 2-7; 1-23
B7: anti-CD20 human IgG1 L234T/L235K/G236R (antibody)
heavy: B1 heavy with R238T, H239K
light: B1 light
notes: also called 2-58
B8: anti-CD20 human IgG1 L234A/L235S/G236R (antibody)
heavy: not shown
light: B1 light
notes: also called 2-4; 1-14
B9: anti-CD20 human IgG1 L234R/L235R/G236R (antibody)
heavy: B1 heavy with H239R
light: B1 light
notes: also called 2-43
B10: anti-CD20 human IgG1 L234Q/L235V/G236R (antibody)
heavy: B1 heavy with R238Q, H239V
light: B1 light
B11: anti-CD20 human IgG1 L234K/L235V/G236R (antibody)
heavy: B1 heavy with R238K, H239V
light: B1 light
notes: also called 2-26; 1-91
B12: anti-CD20 human IgG1 L234R/L235E/G236R (antibody)
heavy: B1 heavy with H239E
light: B1 light
notes: also called 2-37
B13: anti-CD20 human IgG1 L234S/L235H/G236R (antibody)
heavy: B1 heavy with R238S
light: B1 light
notes: also called 2-48
B14: anti-CD20 human IgG1 L234S/L235R/G236R (antibody)
heavy: B1 heavy with R238S, H239R
light: B1 light
notes: also called 2-51
B15: anti-CD20 human IgG1 L234Q/L235A/G236R (antibody)
heavy: not shown
light: B1 light
notes: also called 2-27
B16: anti-CD20 human IgG1 L234K/L235R/G236R (antibody)
heavy: B1 heavy with R238K, H239R
light: B1 light
notes: also called 2-23; 1-88
B17: anti-CD20 human IgG1 L234S/L235G/G236R (antibody)
heavy: B1 heavy with R238S, H239G
light: B1 light
notes: also called 2-47; 1-140
B18: anti-CD20 human IgG1 L234A/L235A/P329G (LALAPG reference) (antibody)
heavy: not shown
light: B1 light
notes: also called 2-66; copies: 2 + 2

Residue numbers refer to the chain shown, from its start. Names and notes keep the numbering of the source.

The first assay addresses T1, Histidine-tagged recombinant human FcγRI (CD64) (human, UniProt P12314 16-288, limits assumed).
T1 construct: bought
As to the kind of experiment: SPR, His-FcγRI captured; Expt 2. (Surface plasmon resonance follows binding to a sensor surface in real time, without labels.)
On to B1, for which the “Corrected response (RU)” value turned out to be 0.7 RU.

As for B2, the “Corrected response (RU)” value was -0.2 RU.

As to B3, the “Corrected response (RU)” value was found to be 0.9 RU.

B4: the “Corrected response (RU)” value is 1.6 RU.

Consider B5, for which the “Corrected response (RU)” value amounted to 2.3 RU.

Consider B6, for which the “Corrected response (RU)” value was found to be 0.1 RU.

B7: the “Corrected response (RU)” value is 2.4 RU.

With B8, the “Corrected response (RU)” value is -1.2 RU.

As to B9, the “Corrected response (RU)” value was 1.8 RU.

In the case of B10, the “Corrected response (RU)” value came to 2.5 RU.

B11: the “Corrected response (RU)” value worked out at 0.4 RU.

Take B12: the “Corrected response (RU)” value came to 1.8 RU.

For B13, the “Corrected response (RU)” value turned out to be 1.1 RU.

For another assay, the target named is T2, human FcγRIIIA (F158) (human, UniProt P08637 17-208).
T2 construct: bought; F158 allele
T2 sequence (P08637 17-208 limits assumed): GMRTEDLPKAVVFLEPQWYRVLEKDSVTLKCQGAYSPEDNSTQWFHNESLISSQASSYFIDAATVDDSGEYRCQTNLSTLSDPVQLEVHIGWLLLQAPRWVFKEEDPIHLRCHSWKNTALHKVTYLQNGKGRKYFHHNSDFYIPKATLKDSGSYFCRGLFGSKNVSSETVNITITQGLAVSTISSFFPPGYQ
The assay is described as follows: SPR, FcγRIIIA captured. Further: test concentration or dose not given here.
With B1, the “Corrected response (RU)” value was 3.9 RU.

B14: the “Corrected response (RU)” value came to 2.4 RU.

With B15, the “Corrected response (RU)” value was 4.4 RU.

For B2, the “Corrected response (RU)” value was 2.7 RU.

In the case of B3, the “Corrected response (RU)” value was determined as 2.5 RU.

In the case of B4, the “Corrected response (RU)” value worked out at 3.8 RU.

On to B16, for which the “Corrected response (RU)” value amounted to 7.1 RU.

B5: the “Corrected response (RU)” value amounted to 3 RU.

Consider B6, for which the “Corrected response (RU)” value came out at 3.7 RU.

In the case of B7, the “Corrected response (RU)” value was determined as 3.5 RU.

With B8, the “Corrected response (RU)” value is 6 RU.

On to B17, for which the “Corrected response (RU)” value was found to be 3.8 RU.

Consider B9, for which the “Corrected response (RU)” value turned out to be 10.2 RU.

As to B10, the “Corrected response (RU)” value stood at 4.7 RU.

With B11, the “Corrected response (RU)” value worked out at 5.5 RU.

B12: the “Corrected response (RU)” value came to 4.6 RU.

For the molecule B13, the “Corrected response (RU)” value stood at 3.7 RU.

The target of the next assay is T3, human FcγRIIIB (NA2 allotype, Sino Biological Cat. No. 11046-H08H) (human, UniProt O75015 17-200).
T3 construct: bought; also called human FcγRIIIb NA2 allele
The assay is described as follows: SPR, captured His-receptor.
Regarding B18, the binding result is on record as “no binding (tested: 100 µg/mL)”.

A further assay concerns the target T4, human FcγRIIA (R131, Sino Biological Cat. No. 10374-H08H) (human, UniProt P12318 34-218).
T4 construct: bought; also called human FcγRIIa R131 allele; FcγRII allele R131
T4 sequence (looked up): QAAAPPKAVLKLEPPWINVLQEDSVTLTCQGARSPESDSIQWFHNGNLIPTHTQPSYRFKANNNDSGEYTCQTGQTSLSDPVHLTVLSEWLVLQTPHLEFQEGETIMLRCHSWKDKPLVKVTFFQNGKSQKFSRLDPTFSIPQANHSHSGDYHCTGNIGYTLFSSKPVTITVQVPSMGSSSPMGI
As to the kind of experiment: SPR, captured His-receptor.
B18: the binding result is “no binding (tested: 100 µg/mL)”.

The next assay deals with T1, Histidine-tagged recombinant human …. As to the kind of experiment: SPR, His-FcγRI captured; Expt 1.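 Further: SPR at 25 °C on anti-His antibody chip capturing FcγRI, Fc-variant antibodies injected at 100 µg/mL for 1 min, signal near end of injection minus buffer blank.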
On to B1, for which the “Corrected response (RU)” value was -1.2 RU.

B14: the “Corrected response (RU)” value is -1.1 RU.

On to B2, for which the “Corrected response (RU)” value was -0.8 RU.

Regarding B3, the “Corrected response (RU)” value was 0.8 RU.

In the case of B4, the “Corrected response (RU)” value amounted to 0.2 RU.

As to B16, the “Corrected response (RU)” value stood at 0.6 RU.

Take B5: the “Corrected response (RU)” value amounted to 2.2 RU.

As for B6, the “Corrected response (RU)” value is -1.4 RU.

Turning to B7, the “Corrected response (RU)” value was 1.1 RU.

In the case of B8, the “Corrected response (RU)” value amounted to 0 RU.

Regarding B17, the “Corrected response (RU)” value was found to be 2.6 RU.

For the molecule B9, the “Corrected response (RU)” value was -0.4 RU.

Consider B10, for which the “Corrected response (RU)” value turned out to be 0.5 RU.

For B11, the “Corrected response (RU)” value was -1.7 RU.

Turning to B12, the “Corrected response (RU)” value was 0.9 RU.

As to B13, the “Corrected response (RU)” value came out at 0.4 RU.

For a further assay the target is unchanged. As to the kind of experiment: SPR, His-FcγRI captured; Expt 3.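 Further: biacore T200 SPR at 25 °C, Fc-variant antibodies at 100 µg/mL flowed 1 min over anti-His-captured FcγRI, signal taken just before injection end minus a buffer blank cycle; antibody analyte injected at 100 µg/mL for 1 min.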
With B1, the “Corrected response (RU)” value turned out to be 2.3 RU.

As for B14, the “Corrected response (RU)” value amounted to 1.6 RU.

In the case of B15, the “Corrected response (RU)” value came out at 3.6 RU.

Consider B3, for which the “Corrected response (RU)” value came to 2.5 RU.

As for B4, the “Corrected response (RU)” value is 3.5 RU.

As to B16, the “Corrected response (RU)” value amounted to 3.2 RU.

In the case of B5, the “Corrected response (RU)” value turned out to be 4.5 RU.

As for B6, the “Corrected response (RU)” value is 1.8 RU.

Turning to B7, the “Corrected response (RU)” value is 4.5 RU.

Consider B8, for which the “Corrected response (RU)” value was 2.4 RU.

With B17, the “Corrected response (RU)” value turned out to be 3.7 RU.

For B10, the “Corrected response (RU)” value is 4.5 RU.

As for B11, the “Corrected response (RU)” value is 3.1 RU.

B12: the “Corrected response (RU)” value is 4.6 RU.

B13: the “Corrected response (RU)” value stood at 3.9 RU.

The target is the same in a further assay. The assay is described as follows: SPR, His-FcγRI captured; mean.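 Further: biacore T200 SPR at 25 °C, anti-His surface capturing FcγRI, Fc-variant antibodies injected at 100 µg/mL for 1 min, signal near injection end minus third buffer blank, three repeats.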
B1: the “Corrected response (RU), Mean” value came out at 0.6 RU.

B14: the “Corrected response (RU), Mean” value came out at 0.8 RU.

In the case of B15, the “Corrected response (RU), Mean” value was 2.2 RU.

As to B2, the “Corrected response (RU), Mean” value amounted to 0.1 RU.

Regarding B3, the “Corrected response (RU), Mean” value is 1.4 RU.

On to B4, for which the “Corrected response (RU), Mean” value came to 1.8 RU.

Turning to B16, the “Corrected response (RU), Mean” value is 2.2 RU.

With B5, the “Corrected response (RU), Mean” value came out at 3 RU.

On to B6, for which the “Corrected response (RU), Mean” value was 0.2 RU.

As to B7, the “Corrected response (RU), Mean” value came out at 2.7 RU.

Consider B8, for which the “Corrected response (RU), Mean” value was found to be 0.4 RU.

Turning to B17, the “Corrected response (RU), Mean” value was found to be 2.6 RU.

Consider B9, for which the “Corrected response (RU), Mean” value is 0.7 RU.

On to B10, for which the “Corrected response (RU), Mean” value turned out to be 2.5 RU.

Regarding B11, the “Corrected response (RU), Mean” value was found to be 0.6 RU.

B12: the “Corrected response (RU), Mean” value came out at 2.4 RU.

Regarding B13, the “Corrected response (RU), Mean” value turned out to be 1.8 RU.
